We go through three molecules from patent US20030022275, “HUMAN NK-3 RELATED PROSTATE SPECIFIC GENE-1” (published 2003).

Data set [1] addresses T1, NKX3.1 homeodomain (NKX3.1HD) (Homo sapiens, UniProt Q99801 SEQ:122-188). The data set is described as follows: EMSA; human protein stated to behave identically to murine in DNA binding. As to conditions: tags: N-terminal 6xHis (pQE-9, E. coli); label: 32P. The protocol:
(§1) The DNA binding experiments were performed as follows. Briefly, increasing amounts of protein were incubated in binding buffer [10 mM Tris-HCl ([…]), 50 mM NaCl, 5% glycerol, 5% sucrose, 0.2 mM EDTA, 7.5 mM MgCl₂, 0.5 mg/mL bovine serum albumin, 0.1% NP-40, 10 mM DTT, 500 μg of poly-didC] with 4×10⁴ cpm of ³²P-labeled, double stranded oligonucleotide for 20 min at room temperature. The sequences of the DNA binding sites were as follows (top strand shown):
(§2) The DNA binding specificity of NKX3.1HD was examined by gel mobility shift analysis using various DNA sites identified for NK-like and Antennapedia-like homeodomains. The DNA sites were as follows: (i) the consensus DNA site for the NKX2.1 homeodomain (TCAAGTG) (Guazzi, S. et al., EMBO J. 9:3631-3639 (1990)) and a mutated version of this site that contains nucleotide substitutions within the CAAG core (TCACGTG); and (ii) the consensus DNA site identified for an Antennapedia-like homeodomain (Msx1) (CTAATTG), a mutated version of this site that contains nucleotide substitutions within the TAAT core (CTACTTG), or one that contains nucleotide substitutions 3′ of the TAAT core (CTAATGG) (Catron, K. M. et al., Mol. Cell. Biol. 13;2354-2365 (1993); Guazzi, S. et al., EMBO J. 9:3631-3639 (1990)). […]

The target in data set [2] is T1, NKX3.1 homeodomain (NKX3.1HD). The data set is described as follows: EMSA; human protein stated to behave identically to murine. The note with it: tags: N-terminal 6xHis (pQE-9, E. coli); label: 32P. The procedure: as §1, §2

B1: C site (NKX2.1 consensus, CAAG core) (dsDNA)
DNA 1: CACTGCCCAGTCAAGTGTTCTTGA
DNA 2: TCAAGAACACTTGACTGGGCAGTG
Turning to B1, the binding result in data set [1] is listed as “binds”.

B2: mutated C site (CACG) (dsDNA)
DNA 1: CACTGCCCAGTCACGTGTTCGTGA
DNA 2: TCACGAACACGTGACTGGGCAGTG
B2: the binding result in data set [2] is given as “no binding”.

B3: site 6-19 (mutated TAAT core) (dsDNA)
DNA 1: ACACTACTTGGAGGC
DNA 2: GCCTCCAAGTAGTGT
For B3, the binding result in data set [2] was “no binding”.
